Assay results from the supplement of paper PMC9732359.
± gives the uncertainty stated by the source.

Experiment: protein stability index of a GFP-peptide fusion (yeast GPS) (PSI 1-4); higher = more stable; sorted into four equal gates, so the index is relative within each strain
In short: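 Plasmids isolated from each sorting gate were PCR-amplified and Illumina-sequenced, and barcodes assigned the reads to strains. The gates, four of equal size, were set by GFP/Cherry fluorescence ratio on mid-log cultures in leucine-free medium. These cultures were yeast carrying a pooled library of tiled 17-residue yeast protein peptides fused downstream of GFP on a plasmid that also expresses Cherry. The protein stability index is the sum of every gate's read frequency times its gate number.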

Row | Sequence | protein stability index (doa10∆) | protein stability index (san1∆) | protein stability index (pdr5∆) | protein stability index (ubr1∆)
1 | GLQNVRKVRTKKWKKYW [SWP82] | 3.6 ± 0.2 | 3.26 ± 0.25 |  | 
2 | GLRNQNMVRNNNNNTID [GRR1] | 2.75 ± 0.063 | 2.83 ± 0.057 | 2.86 ± 0.071 | 2.96 ± 0.038
3 | GLSAREAVKQAAKIIYL [PRE10] | 2.86 ± 0.096 | 2.59 ± 0.1 | 2.59 ± 0.063 | 2.52 ± 0.053
4 | GLTSRLQRQQRKSKLNL [POP4] | 2.65 ± 0.12 | 3.09 ± 0.063 | 3.34 ± 0.18 | 3.67 ± 0.27
5 | GLVKQHLDSFNYFVDTD [RET1] | 3.46 ± 0.17 | 2.97 ± 0.11 | 3.05 ± 0.097 | 3.36 ± 0.075
6 | GNAKESKALLREISNFS [SRP72] | 2.97 ± 0.17 | 2.7 ± 0.14 | 2.94 ± 0.13 | 3.01 ± 0.15
7 | GNIDTKNNILGSNVLKS [RRP43] | 2.86 ± 0.039 | 2.92 ± 0.032 | 2.97 ± 0.044 | 3.041 ± 0.027
8 | GNISSSTVKKKDIVNIS [REC8] | 3.03 ± 0.063 | 2.88 ± 0.044 | 3.07 ± 0.056 | 3.02 ± 0.05
9 | GNKALEDEEEFSIFNYF [RPC34] | 3.21 ± 0.13 |  | 3.37 ± 0.14 | 
10 | GNSEAIPGLSAGVNNDN [RTT102] | 3.21 ± 0.086 | 3.39 ± 0.069 | 3.53 ± 0.082 | 3.47 ± 0.084
11 | GNSFHLMRELLKMMKLI [PRP8] | 2.78 ± 0.051 | 2.6 ± 0.065 | 2.41 ± 0.046 | 2.43 ± 0.049
12 | GPENALNVYHYFGENSS [YJL039C/NUP192] | 2.05 ± 0.032 | 2.06 ± 0.053 | 2.05 ± 0.042 | 2.65 ± 0.031
13 | GPRAVLTRQPTEGRSRD [RET1] | 3.43 ± 0.091 | 3.1 ± 0.067 | 3.35 ± 0.066 | 3.34 ± 0.057
14 | GPSAMRLSRCIRDNKLV [RPC82] | 1.94 ± 0.14 | 1.58 ± 0.15 | 2.23 ± 0.13 | 2.15 ± 0.099
15 | GQLEDFDSELIHLKQKL [SMC3] |  | 3.23 ± 0.15 | 2.89 ± 0.16 | 2.95 ± 0.17
16 | GQLISLLFEDLFKKFNN [RET1] | 3.1 ± 0.17 | 3.34 ± 0.15 | 3.22 ± 0.23 | 
17 | GQVVLTPLTFALPRGAR [RPL14A] | 1.5 ± 0.074 | 1.18 ± 0.11 | 1.55 ± 0.071 | 1.89 ± 0.073
18 | GRFLRVPKEGLFYFDSS [BRR2] | 3.18 ± 0.11 | 3.3 ± 0.081 | 3.32 ± 0.073 | 3.1 ± 0.054
19 | GRIRTTREDVSPHYNSQ [SSN3] | 1.81 ± 0.067 | 1.89 ± 0.07 | 2.02 ± 0.091 | 1.73 ± 0.11
20 | GRNLGRIGTIVHKERHD [RPS4A] | 2.42 ± 0.13 | 2.5 ± 0.059 | 2.03 ± 0.098 | 2.63 ± 0.061
21 | GRQTVLIKDNSAMVTTA [SRB2] |  |  | 1.8 ± 0.28 | 
22 | GRRLSMLASQANGGSTI [DSN1] | 2.1 ± 0.057 | 2.42 ± 0.071 | 2.7 ± 0.074 | 2.29 ± 0.047
23 | GRTGNGNMGITTEMLDK [MED6] | 3.23 ± 0.069 | 3.28 ± 0.047 | 3.23 ± 0.062 | 3.27 ± 0.04
24 | GRVYRPLFIVEDDESLG [RPB2] | 1.71 ± 0.063 | 1.59 ± 0.1 | 1.8 ± 0.087 | 1.69 ± 0.034
25 | GSAATSGFEFSKEDTLR [RPN1] | 2.61 ± 0.15 | 2.72 ± 0.15 | 3.14 ± 0.16 | 3.08 ± 0.13
26 | GSAITGPVGKECADLWP [RPL23A] | 2.44 ± 0.11 | 2.83 ± 0.067 | 2.75 ± 0.085 | 2.64 ± 0.064
27 | GSARTRWEMEAFGEFSL [FAS2] | 1.78 ± 0.072 | 2.93 ± 0.098 | 2.92 ± 0.13 | 2.24 ± 0.098
